# B1: PKM2(F244V) (enzyme)
# chain: not shown
# notes: pyruvate kinase M2 (PKM2), Homo sapiens, Uniprot ID P14618-1; pET28a-His-PKM2(F244V), made from pET28a-His-PKM2(WT); also called AlloHubM F244V; source: E. coli BL21(DE3)pLysS, purified (HisTrap IMAC, thrombin cleavage, Superdex 200 SEC); not shown: His6, N-terminal, cleaved
# B2: PKM2(I124G) (enzyme)
# chain: not shown
# notes: pyruvate kinase M2 (PKM2), Homo sapiens, Uniprot ID P14618-1; pET28a-His-PKM2(I124G), made from pET28a-His-PKM2(WT); also called AlloHubM I124G; source: E. coli BL21(DE3)pLysS, purified (HisTrap IMAC, thrombin cleavage, Superdex 200 SEC); not shown: His6, N-terminal, cleaved
# B3: PKM2(C358A) (enzyme)
# chain: not shown
# notes: pyruvate kinase M2 (PKM2), Homo sapiens, Uniprot ID P14618-1; pET28a-His-PKM2(C358A), made from pET28a-His-PKM2(WT); also called AlloHubM C358A; source: E. coli BL21(DE3)pLysS, purified (HisTrap IMAC, thrombin cleavage, Superdex 200 SEC); not shown: His6, N-terminal, cleaved
# B4: PKM2(K305Q) (enzyme)
# chain: not shown
# notes: pyruvate kinase M2 (PKM2), Homo sapiens, Uniprot ID P14618-1; pET28a-His-PKM2(K305Q), made from pET28a-His-PKM2(WT); also called AlloHubM K305Q; source: E. coli BL21(DE3)pLysS, purified (HisTrap IMAC, thrombin cleavage, Superdex 200 SEC); not shown: His6, N-terminal, cleaved
# B5: PKM2(A327S) (enzyme)
# chain: not shown
# notes: pyruvate kinase M2 (PKM2), Homo sapiens, Uniprot ID P14618-1; pET28a-His-PKM2(A327S), made from pET28a-His-PKM2(WT); also called AlloHubM A327S; source: E. coli BL21(DE3)pLysS, purified (HisTrap IMAC, thrombin cleavage, Superdex 200 SEC); not shown: His6, N-terminal, cleaved
# Target: the molecule itself
# Assay: native MS; nano-ESI, PKM2 in 200 mM ammonium acetate pH 6.8, with added saturating FBP (10 µM FBP to 10 µM PKM2; 10:1 FBP:PKM2 for the AlloHub mutants); also with 300 µM Phe added before or after FBP
protein,measurement,value
B1,binding result,binds
B2,binding result,binds
B3,stoichiometry N,4
B4,stoichiometry N,4
B5,stoichiometry N,4
